{
  "source": "patent US20170037110A1",
  "about": "(IMMATICS BIOTECHNOLOGIES, published 2017)",
  "data": [
    {"molecular_target": "T1, HLA-A*02:01 (human)", "T1 construct": "monomers captured on streptavidin plates; also called MHC class I", "assay": "UV peptide exchange ELISA", "outline": "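Peptide-MHC complexes formed by UV-triggered exchange of a cleavable peptide for the test peptide, with stabilised complexes indicating binding. Exchange products diluted 100 fold onto streptavidin-coated wells, 1h at 37° C.; HRP anti-β2m (2 μg/ml), TMB, absorbance at 450 nm gives exchange yield.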", "units": {"peptide exchange yield": "%"}, "values": [
      {"binder": "ALPVSLPQI", "peptide exchange yield": "50 to 75"},
      {"binder": "SQYSGQLHEV", "peptide exchange yield": "50 to 75"},
      {"binder": "GLFDGVPTTA", "peptide exchange yield": "50 to 75"},
      {"binder": "FLVDTPLARA", "peptide exchange yield": "≥ 75"},
      {"binder": "RLYTGMHTV", "peptide exchange yield": "50 to 75"},
      {"binder": "IISDLTIAL", "peptide exchange yield": "50 to 75"},
      {"binder": "VLFDDELLMV", "peptide exchange yield": "50 to 75"},
      {"binder": "ALIAEGIALV", "peptide exchange yield": "50 to 75"},
      {"binder": "YLQDVVEQA", "peptide exchange yield": "50 to 75"},
      {"binder": "IMEENPGIFAV", "peptide exchange yield": "50 to 75"},
      {"binder": "ILLERLWYV", "peptide exchange yield": "50 to 75"},
      {"binder": "SLAALVVHV", "peptide exchange yield": "50 to 75"},
      {"binder": "GLINTGVLSV", "peptide exchange yield": "20 to 50"},
      {"binder": "SLEPQIQPV", "peptide exchange yield": "20 to 50"},
      {"binder": "KMFEFVEPLL", "peptide exchange yield": "≥ 75"},
      {"binder": "GLFEDVTQPGILL", "peptide exchange yield": "≥ 75"},
      {"binder": "TLMTSLPAL", "peptide exchange yield": "50 to 75"},
      {"binder": "FLYDEIEAEV", "peptide exchange yield": "50 to 75"},
      {"binder": "FIMPATVADATAV", "peptide exchange yield": "50 to 75"},
      {"binder": "FLPEALDFV", "peptide exchange yield": "50 to 75"},
      {"binder": "VLLDDIFAQL", "peptide exchange yield": "50 to 75"},
      {"binder": "GLAPFTEGISFV", "peptide exchange yield": "50 to 75"},
      {"binder": "ALNDQVFEI", "peptide exchange yield": "50 to 75"},
      {"binder": "FLVTLNNVEV", "peptide exchange yield": "≥ 75"},
      {"binder": "QLALKVEGV", "peptide exchange yield": "50 to 75"},
      {"binder": "KVDTVWVNV", "peptide exchange yield": "50 to 75"},
      {"binder": "YLISELEAA", "peptide exchange yield": "50 to 75"},
      {"binder": "FLPDANSSV", "peptide exchange yield": "20 to 50"},
      {"binder": "TLTKVLVAL", "peptide exchange yield": "50 to 75"},
      {"binder": "YSLSSVVTV", "peptide exchange yield": "50 to 75"},
      {"binder": "ILLTAIVQV", "peptide exchange yield": "50 to 75"},
      {"binder": "SLSDGLEEV", "peptide exchange yield": "20 to 50"},
      {"binder": "HLLSELEAAPYL", "peptide exchange yield": "≥ 75"},
      {"binder": "GLWEIENNPTVKA", "peptide exchange yield": "≥ 75"},
      {"binder": "ALLSMTFPL", "peptide exchange yield": "≥ 75"},
      {"binder": "SQIALNEKLVNL", "peptide exchange yield": "50 to 75"},
      {"binder": "HIYDKVMTV", "peptide exchange yield": "50 to 75"},
      {"binder": "SLLEVNEESTV", "peptide exchange yield": "50 to 75"},
      {"binder": "YLQDQHLLLTV", "peptide exchange yield": "50 to 75"},
      {"binder": "VIWKALIHL", "peptide exchange yield": "50 to 75"},
      {"binder": "LLDSKVPSV", "peptide exchange yield": "50 to 75"},
      {"binder": "SLFKHDPAAWEA", "peptide exchange yield": "≥ 75"},
      {"binder": "FLPDEPYIKV", "peptide exchange yield": "50 to 75"},
      {"binder": "ILLDVKTRL", "peptide exchange yield": "≥ 75"},
      {"binder": "ALLDVTHSELTV", "peptide exchange yield": "50 to 75"},
      {"binder": "SLIPNLRNV", "peptide exchange yield": "50 to 75"},
      {"binder": "SLLELLHIYV", "peptide exchange yield": "50 to 75"},
      {"binder": "YLFEMDSSL", "peptide exchange yield": "20 to 50"},
      {"binder": "LILEGVDTV", "peptide exchange yield": "20 to 50"},
      {"binder": "SIQQSIERLLV", "peptide exchange yield": "20 to 50"},
      {"binder": "KLLGKLPEL", "peptide exchange yield": "50 to 75"},
      {"binder": "SMHDLVLQV", "peptide exchange yield": "50 to 75"},
      {"binder": "ALLELAEEL", "peptide exchange yield": "50 to 75"},
      {"binder": "ALDEYTSEL", "peptide exchange yield": "≥ 75"},
      {"binder": "YLLPESVDL", "peptide exchange yield": "50 to 75"},
      {"binder": "ALYELEGTTV", "peptide exchange yield": "50 to 75"},
      {"binder": "TLYGLSVLL", "peptide exchange yield": "50 to 75"},
      {"binder": "KVLDVSDLESV", "peptide exchange yield": "20 to 50"},
      {"binder": "LLQNEQFEL", "peptide exchange yield": "50 to 75"},
      {"binder": "YVIDQGETDVYV", "peptide exchange yield": "50 to 75"},
      {"binder": "RLLDMGETDLML", "peptide exchange yield": "50 to 75"},
      {"binder": "SLQNHNHQL", "peptide exchange yield": "50 to 75"},
      {"binder": "GLFPEHLIDV", "peptide exchange yield": "50 to 75"},
      {"binder": "ILADIVISA", "peptide exchange yield": "50 to 75"},
      {"binder": "SLLQDLVSV", "peptide exchange yield": "50 to 75"},
      {"binder": "FLQAHLHTA", "peptide exchange yield": "≥ 75"},
      {"binder": "TMLLNIPLV", "peptide exchange yield": "20 to 50"},
      {"binder": "SLLEDKGLAEV", "peptide exchange yield": "20 to 50"},
      {"binder": "FLLQQHLISA", "peptide exchange yield": "20 to 50"},
      {"binder": "AMFESSQNVLL", "peptide exchange yield": "20 to 50"},
      {"binder": "FLLDSSASV", "peptide exchange yield": "20 to 50"},
      {"binder": "ALGYFVPYV", "peptide exchange yield": "50 to 75"},
      {"binder": "IMEGTLTRV", "peptide exchange yield": "20 to 50"}
    ]}
  ]
}
